Test results: PMC8622166 (2021)
Numbering of substitutions follows the chain as printed. Names may count otherwise. Read-outs that look alike come from different tables or passages of the source.

Assays:
[1] = target: T1, non-isoprenylated RAC1 full-length (RAC1^FL) (human, UniProt P63000 1-192); experiment: FP; mdGDP-bound RAC1
[2] = target: T1, non-isoprenylated RAC1 full-length …; experiment: FP
[3] = target: T1, non-isoprenylated RAC1 full-length …; experiment: stopped-flow
[4] = target: T1, non-isoprenylated RAC1 full-length …; experiment: kinetic, koff/kon
[5] = target: T1, non-isoprenylated RAC1 full-length …; experiment: stopped-flow; remark: listed apart in the source
[6] = target: T1, non-isoprenylated RAC1 full-length …; experiment: kinetic, koff/kon; remark: listed apart in the source

B1: GDI1^E121K (natural protein)
chain: MAEQEPTAEQLAQIAAENEEDEHSVNYKPPAQKSIQEIQELDKDDESLRKYKEALLGRVAVSADPNVPNVVVTGLTLVCSSAPGPLELDLTGDLESFKKQSFVLKEGVEYRIKISFRVNRKIVSGMKYIQHTYRKGVKIDKTDYMVGSYGPRAEEYEFLTPVEEAPKGMLARGSYSIKSRFTDDDKTDHLSWEWNLTIKKDWKD
- Kd [1]: 14 µM

B2: GDI1^2E>2K (E163K and E164K) (natural protein)
chain: B1 chain with K121E, E163K, E164K
- Kd [1]: 117 µM

B3: GDI1 (RHOGDI1), wild type (natural protein)
chain: B1 chain with K121E
- Kd [2]: 0.96 µM
- koff [3]: 0.34 s⁻¹
- Kd [1]: 1.2 µM
- Kd [4]: 1.03 µM

B4: GDI1^ΔN25 (domain or fragment)
chain: NYKPPAQKSIQEIQELDKDDESLRKYKEALLGRVAVSADPNVPNVVVTGLTLVCSSAPGPLELDLTGDLESFKKQSFVLKEGVEYRIKISFRVNREIVSGMKYIQHTYRKGVKIDKTDYMVGSYGPRAEEYEFLTPVEEAPKGMLARGSYSIKSRFTDDDKTDHLSWEWNLTIKKDWKD
- Kd [1]: 174 µM

B5: GDI1^ΔC6 (domain or fragment)
chain: MAEQEPTAEQLAQIAAENEEDEHSVNYKPPAQKSIQEIQELDKDDESLRKYKEALLGRVAVSADPNVPNVVVTGLTLVCSSAPGPLELDLTGDLESFKKQSFVLKEGVEYRIKISFRVNREIVSGMKYIQHTYRKGVKIDKTDYMVGSYGPRAEEYEFLTPVEEAPKGMLARGSYSIKSRFTDDDKTDHLSWEWNLTI
- koff [5]: 0.59 s⁻¹
- Kd [1]: 29 µM
- Kd [6]: 21.7 µM

B6: GDI1^ΔN15 (domain or fragment)
chain: AENEEDEHSVNYKPPAQKSIQEIQELDKDDESLRKYKEALLGRVAVSADPNVPNVVVTGLTLVCSSAPGPLELDLTGDLESFKKQSFVLKEGVEYRIKISFRVNREIVSGMKYIQHTYRKGVKIDKTDYMVGSYGPRAEEYEFLTPVEEAPKGMLARGSYSIKSRFTDDDKTDHLSWEWNLTIKKDWKD
- koff [5]: 0.54 s⁻¹
- Kd [1]: 102 µM
- Kd [6]: 16.8 µM
